Measurements as given in patent US20220195383A1, “METHOD FOR PRODUCING PLURIPOTENT STEM CELLS” (KANEKA CORPORATION, priority 2019, published 2022).

Columns and labels:
[1] = test system: human iPS cell line RPChiPS771-2; assay: Adhesion culture with addition of WNT3A protein into medium, quantitative real-time PCR; format: cell-based
Method: (§1) These cells were lysed using TRIzol™ Reagent (Thermo Fisher Scientific K.K.). Total RNA was isolated and purified from a cell solution obtained by lysing with TRIzol™ Reagent using a PureLink (registered trademark) RNA Mini kit (Thermo Fisher Scientific K.K.). A concentration of the purified RNA was measured using BioSpec-nano (Shimadzu Corporation), and 40 ng was separated. 2 μL of ReverTra Ace (registered trademark) qPCR RT Master Mix (TOYOBO CO., LTD.) and RNase Free dH2O were added to the separated RNA to prepare 10 μL. cDNA synthesis was performed using SimpliAmp Thermal Cycler (Thermo Fisher Scientific K.K.). […] A synthesized cDNA solution was diluted 100-fold with 10 mM Tris-HCl pH 8.0 (NACALAI TESQUE, INC.) and added to a 384-well PCR plate (Thermo Fisher Scientific K.K.) at 5 μL/well. KOD SYBR® qPCR Mix (TOYOBO CO., LTD.), a Forward primer prepared to 50 μM, a Reverse primer prepared to 50 μM, and DEPC-treated water (NACALAI TESQUE, INC.) were mixed at a ratio of 100:1:1:48. This mixed solution was added to the above-mentioned 384-well PCR plate at 15 μL/well and mixed. For the primers, bACT, OCT4, SOX2, Nanog, Brachyury, and SOX17 were used. The 384-well PCR plate was subjected to centrifugal separation to remove air bubbles in the wells, and quantitative real-time PCR analysis was performed using QuantStudio 7 Flex Real-Time PCR System (Thermo Fisher Scientific K.K.).
(§2) The human iPS cell lines 201B7 and RPChiPS771-2 maintenance-cultured in the procedure of Step 1 of Reference Example 3 were treated with Accutase for 3 to 5 minutes to release the cells from the dish. The cells were dispersed into single cells by pipetting. These cells were suspended in a StemFit (registered trademark) AK02N medium containing Y-27632 at a final concentration of 10 μM. A part of the cells was stained with trypan blue to measure the number of living cells. A cell suspension was prepared so that it contained 4.6×10^4 cells per mL using the StemFit (registered trademark) AK02N medium containing Y-27632 a final concentration of 10 μM. 2 mL of the cell suspension per well was seeded in a 6-well plate for cell culture (Sumitomo Bakelite Co., Ltd.) coated with 0.5 μg of Vitronectin per 1 cm^2. WNT3A protein (R&D Systems, Inc.) was added to each of the wells so that final concentrations were 10 pg/mL, 100 pg/mL, 1 ng/mL, 10 ng/mL, and 100 ng/mL, and adhesion culture was performed at 37° C. in a 5% CO2 environment. The day when the cells were seeded was defined as day 0 of the culture. The adhesion culture was performed until day 5 of the culture. Medium exchange was performed every day. […] Phase-contrast images of the cells were acquired using a phase-contrast microscope on day 5 of the culture. FIG. 8 and FIG. 9 show the acquired phase-contrast images. Furthermore, on day 5 of the culture, the culture supernatant was recovered from the wells. 0.5 mL of Accutase was added per well to treat the cells for 3 to 5 minutes. The cells were released from the wells, and were dispersed into single cells by pipetting. These cells were suspended in a StemFit (registered trademark) AK02N medium containing Y-27632 at a final concentration of 10 μM. A part of the cells was stained with trypan blue to measure the number of living cells.
(§3) The phase-contrast images on day 5 of the culture were analyzed with image analysis software (for example, ImageJ), and a proportion of a surface area of cells with respect to a culture area was calculated. From this value and the culture area (9.2 cm^2/well), an area in which the cell surface was in contact with the medium was calculated. Furthermore, a surface area (cm^2) in contact with the medium per cell was calculated from an area in which the cell surface was in contact with the medium and from the number of living cells on day 5 of the culture. […]

[2] = test system: human iPS cell line 201B7; assay: as above; format: cell-based; conditions: Line 201B7, day 5
Method: as §1, §2, §3

[3] = WNT3A protein in medium 10 pg/mL, adhesion culture, Line RPChiPS771-2, day 5
[4] = WNT3A protein in medium 100 pg/mL, adhesion culture, Line RPChiPS771-2, day 5
[5] = WNT3A protein in medium 1 ng/mL, adhesion culture, Line RPChiPS771-2, day 5
[6] = WNT3A protein in medium 10 ng/mL, adhesion culture, Line RPChiPS771-2, day 5
[7] = WNT3A protein in medium 100 ng/mL, adhesion culture, Line RPChiPS771-2, day 5
[8] = adhesion culture with added WNT3A, lines 201B7 and RPChiPS771-2, day 5
[9] = WNT3A protein in medium 10 pg/mL
[10] = WNT3A protein in medium 100 pg/mL
[11] = WNT3A protein in medium 1 ng/mL
[12] = WNT3A protein in medium 10 ng/mL
[13] = WNT3A protein in medium 100 ng/mL

B1: WNT3A protein: WNT3A protein (R&D Systems, Inc.) added to the adhesion culture medium at 10 pg/mL to 100 ng/mL (protein, UniProt P56704 19-352, looked up)
Protein Wnt-3a: SYPIWWSLAVGPQYSSLGSQPILCASIPGLVPKQLRFCRNYVEIMPSVAEGIKIGIQECQHQFRGRRWNCTTVHDSLAIFGPVLDKATRESAFVHAIASAGVAFAVTRSCAEGTAAICGCSSRHQGSPGKGWKWGGCSEDIEFGGMVSREFADARENRPDARSAMNRHNNEAGRQAIASHMHLKCKCHGLSGSCEVKTCWWSQPDFRAIGDFLKDKYDSASEMVVEKHRESRGWVETLRPRYTYFKVPTERDLVYYEASPNFCEPNPETGSFGTRDRTCNVSSHGIDGCDLLCCGRGHNARAERRREKCRCVFHWCCYVSCQECTRVYDVHTCK
Relative gene expression level with respect to ACTB in 2^−Λ Ct, Nanog [1, 3]: 5.06 × 10^−2
Relative gene expression level with respect to ACTB in 2^−Λ Ct, OCT4 [1, 3]: 4.06 × 10^−1
Relative gene expression level with respect to ACTB in 2^−Λ Ct, SOX2 [1, 3]: 2.64 × 10^−2
Relative gene expression level with respect to ACTB in 2^−Λ Ct, Nanog [1, 4]: 5.30 × 10^−2
Relative gene expression level with respect to ACTB in 2^−Λ Ct, OCT4 [1, 4]: 4.44 × 10^−1
Relative gene expression level with respect to ACTB in 2^−Λ Ct, SOX2 [1, 4]: 2.77 × 10^−2
Relative gene expression level with respect to ACTB in 2^−Λ Ct, Nanog [1, 5]: 4.88 × 10^−2
Relative gene expression level with respect to ACTB in 2^−Λ Ct, OCT4 [1, 5]: 3.87 × 10^−1
Relative gene expression level with respect to ACTB in 2^−Λ Ct, SOX2 [1, 5]: 2.89 × 10^−2
Relative gene expression level with respect to ACTB in 2^−Λ Ct, Nanog [1, 6]: 5.53 × 10^−2
Relative gene expression level with respect to ACTB in 2^−Λ Ct, OCT4 [1, 6]: 4.42 × 10^−1
Relative gene expression level with respect to ACTB in 2^−Λ Ct, SOX2 [1, 6]: 2.77 × 10^−2
Relative gene expression level with respect to ACTB in 2^−Λ Ct, Brachyury [1, 7]: 3.07 × 10^−4
Relative gene expression level with respect to ACTB in 2^−Λ Ct, Nanog [1, 7]: 6.65 × 10^−2
Relative gene expression level with respect to ACTB in 2^−Λ Ct, OCT4 [1, 7]: 4.56 × 10^−1
Relative gene expression level with respect to ACTB in 2^−Λ Ct, SOX2 [1, 7]: 1.66 × 10^−2
Relative gene expression level with respect to ACTB in 2^−Λ Ct, SOX17 [1, 7]: 1.11 × 10^−3
Amount of WNT3A protein contained in unit of medium in contact with unit area of cell surface at which expression of the differentiation marker gene was detected [1, 8]: ≥ 5.2×10^4 μg/mL·cm^2
Amount of WNT3A protein contained in unit of medium in contact with unit area of cell surface at which expression of the differentiation marker gene was not detected [1, 8]: ≤ 6.7×10^3 μg/mL·cm^2
Relative gene expression level with respect to ACTB in 2^−Λ Ct, Nanog [2, 9]: 2.59 × 10^−2
Relative gene expression level with respect to ACTB in 2^−Λ Ct, OCT4 [2, 9]: 2.27 × 10^−1
Relative gene expression level with respect to ACTB in 2^−Λ Ct, SOX2 [2, 9]: 2.44 × 10^−2
Relative gene expression level with respect to ACTB in 2^−Λ Ct, Nanog [2, 10]: 2.91 × 10^−2
Relative gene expression level with respect to ACTB in 2^−Λ Ct, OCT4 [2, 10]: 2.63 × 10^−1
Relative gene expression level with respect to ACTB in 2^−Λ Ct, SOX2 [2, 10]: 2.75 × 10^−2
Relative gene expression level with respect to ACTB in 2^−Λ Ct, Nanog [2, 11]: 2.82 × 10^−2
Relative gene expression level with respect to ACTB in 2^−Λ Ct, OCT4 [2, 11]: 2.50 × 10^−1
Relative gene expression level with respect to ACTB in 2^−Λ Ct, SOX2 [2, 11]: 2.57 × 10^−2
Relative gene expression level with respect to ACTB in 2^−Λ Ct, Nanog [2, 12]: 2.96 × 10^−2
Relative gene expression level with respect to ACTB in 2^−Λ Ct, OCT4 [2, 12]: 2.56 × 10^−1
Relative gene expression level with respect to ACTB in 2^−Λ Ct, SOX2 [2, 12]: 2.55 × 10^−2
Relative gene expression level with respect to ACTB in 2^−Λ Ct, Brachyury [2, 13]: 3.14 × 10^−4
Relative gene expression level with respect to ACTB in 2^−Λ Ct, Nanog [2, 13]: 6.13 × 10^−2
Relative gene expression level with respect to ACTB in 2^−Λ Ct, OCT4 [2, 13]: 3.60 × 10^−1
Relative gene expression level with respect to ACTB in 2^−Λ Ct, SOX2 [2, 13]: 2.08 × 10^−2
Relative gene expression level with respect to ACTB in 2^−Λ Ct, SOX17 [2, 13]: 4.03 × 10^−5
